The target in assay [1] is receptor for activated protein C kinase 1 (RACK1) (human (endogenous in Caco-2)) (UniProt P63244).
Assay [2] has the same target. The source holds these as a separate data set.

These results are taken from paper PMC10798628.

In assay [1], “recombinant Trichinella spiralis serine proteinase with GST tag (rTsSPc) (enzyme)” had an expression level of RACK1 in Caco-2 cells treated with rTsSPc, Western blot, increase compared to the PBS group of 2.11 folds and a p-ERK1/2 level in Caco-2 cells treated with rTsSPc, Western blot, increase compared to the PBS group of 18.3 folds.
For “recombinant Trichinella spiralis serine proteinase with GST tag (rTsSPc)”, in assay [2], the inhibition rate of anti-RACK1 antibody on T. spiralis IIL invasion of the Caco-2 monolayer, compared to the PBS group is 5.12% and the inhibition rate of the RACK1 inhibitor HO on T. spiralis IIL invasion of the Caco-2 monolayer, compared to the PBS group is 7.37%.
